In experiment [1] the target is T1, human PCSK9 with a C-terminal myc-myc-hexahistidine tag (human, UniProt Q8NBP7 31-692, limits assumed).
T1 construct: also called hPCSK9-mmH; hPCSK9-mmh; not shown: C-terminal myc-myc-hexahistidine tag
The experiment is described as follows: SPR 25C pH 5.75, mAb captured.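 Further: biacore surface with anti-human Fc antibody capturing the antibodies, PCSK9 as analyte, one-to-one kinetic fit, KD as kd over ka, half-life derived from kd.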

In experiment [2] the target is T1, human PCSK9 with a C-terminal …. The experiment in a line: SPR 25C, mAb captured.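 Further: biacore CM4 surface bearing anti-human Fc antibody capturing the mAbs, PCSK9 binding and release rates fitted with a one-to-one model, KD and half-life derived from those rates.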
Experimental: (§1) A Biacore CM4 sensor chip was derivatized with a monoclonal mouse anti-human Fc antibody to capture human antibodies. The histidine substitution variant anti-PCSK9 antibodies were captured onto the anti-human Fc sensor surface from culture medium after transient expression in Chinese hamster ovary (CHO) cells. […] Kinetic association (kₐ) and dissociation (kd) rate constants were determined by processing and fitting the data to a 1:1 binding model using Scrubber 2.0 curve fitting software. Binding dissociation equilibrium constants (KD) and dissociative half-lives (t_{1/2}) were calculated from the kinetic rate constants as: KD (M)=kd/kₐ; and t_{1/2} (min)=(In2/(60*kd).
For experiment [3] the target is unchanged. The experiment in a line: SPR 25C pH 7.2, mAb captured.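 Further: biacore SPR, antibodies captured on anti-human Fc CM4 chip with PCSK9 flowed as analyte, rate constants from a one-to-one kinetic fit, KD and half-life derived from them.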
Experimental: as §1

Residue numbers refer to the chain shown, from its start.

26 molecules from patent US20140044730A1 (Regeneron, published 2014) can be followed below.

B1: VH-S30H (antibody, V domains shown)
VH: EMQLVESGGGLVQPGGSLRLSCAASGFTFHSHWMKWVRQAPGKGLEWVANINQDGSEKYYVDSVKGRFTISRDNAKNSLFLQMNSLRAEDTAVYYCARDIVLMVYDMDYYYYGMDVWGQGTTVTVSS
VL: not shown
notes: His variant of 300N
Broadly, the Kd is the concentration at which binding is half-saturated. Read a low Kd as tighter binding. One may read the t½ as the time needed for the level to fall by half in the phase considered. A lower t½ goes with rapid decline. As for B1, in experiment [1], the equilibrium dissociation constant (Kd) worked out at 1.09 nM and the t½ worked out at 13 min. Further, in experiment [2], the “KD ratio pH 5.75/pH 7.2” value amounted to 1.03 and the “t½ ratio pH 5.75/pH 7.2” value was determined as 0.33. Also, in experiment [3], the equilibrium dissociation constant (Kd) turned out to be 1.06 nM and the t½ was found to be 41 min.

B2: VK-S57H (antibody, V domains shown)
VH: B1 VH with H30S
VL: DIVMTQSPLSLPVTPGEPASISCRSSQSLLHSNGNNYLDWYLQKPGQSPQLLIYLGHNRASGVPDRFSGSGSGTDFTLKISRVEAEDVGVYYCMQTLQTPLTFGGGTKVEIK
notes: His variant of 300N
In experiment [1], B2 displayed a dissociation constant (Kd) of 1.74 nM and a t½ of 12 min. In experiment [2], the “KD ratio pH 5.75/pH 7.2” value came out at 1.84 and the “t½ ratio pH 5.75/pH 7.2” value stood at 0.26. In experiment [3], this molecule came in with a Kd of 0.948 nM and a t½ of 48 min.

B3: VH-S56H (antibody, V domains shown)
VH: B1 VH with H30S, S56H
VL: not shown
notes: His variant of 300N
In experiment [1], B3 had a Kd of 1.13 nM and a t½ of 9 min. Moreover, in experiment [2], the “KD ratio pH 5.75/pH 7.2” value was 1.11 and the “t½ ratio pH 5.75/pH 7.2” value amounted to 0.23. Also, in experiment [3], the Kd came out at 1.02 nM and the t½ came to 40 min.

B4: VH-W33H (antibody, V domains shown)
VH: B1 VH with H30S, W33H
VL: not shown
notes: His variant of 300N
On to B4, for which, in experiment [1], the Kd was 21.5 nM and the t½ turned out to be 0.1 min. In experiment [2], the “KD ratio pH 5.75/pH 7.2” value was determined as 1.39 and the “t½ ratio pH 5.75/pH 7.2” value was found to be 0.03. Also, in experiment [3], the dissociation constant Kd was 15.4 nM and the t½ amounted to 4 min.

B5: VK-N35H (antibody, V domains shown)
VH: B1 VH with H30S
VL: not shown
notes: His variant of 300N
Turning to B5, in experiment [1], binding was characterised by a dissociation constant (Kd) of 2.09 nM and the t½ was determined as 14 min. In experiment [2], the “KD ratio pH 5.75/pH 7.2” value amounted to 1.98 and the “t½ ratio pH 5.75/pH 7.2” value stood at 0.29. Besides, in experiment [3], the affinity, expressed as Kd, was 1.06 nM and the t½ was determined as 48 min.

B6: VK-N36H (antibody, V domains shown)
VH: B1 VH with H30S
VL: not shown
notes: His variant of 300N
In the case of B6, in experiment [1], the equilibrium dissociation constant (Kd) was determined as 1.54 nM and the t½ was 10 min. Besides, in experiment [2], the “KD ratio pH 5.75/pH 7.2” value was determined as 1.61 and the “t½ ratio pH 5.75/pH 7.2” value worked out at 0.24. In experiment [3], the Kd is 0.952 nM and the t½ is 42 min.

B7: VK-L97H (antibody, V domains shown)
VH: B1 VH with H30S
VL: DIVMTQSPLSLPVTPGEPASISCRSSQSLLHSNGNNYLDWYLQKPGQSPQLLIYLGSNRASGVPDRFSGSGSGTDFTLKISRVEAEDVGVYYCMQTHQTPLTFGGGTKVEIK
notes: His variant of 300N
In experiment [1], B7 returned a Kd of 12.8 nM and a t½ of 8 min. Also, in experiment [2], the “KD ratio pH 5.75/pH 7.2” value came out at 1.94 and the “t½ ratio pH 5.75/pH 7.2” value was determined as 0.18. Moreover, in experiment [3], the dissociation constant Kd came to 6.61 nM and the t½ stood at 45 min.

B8: VH-Y111H (antibody, V domains shown)
VH: B1 VH with H30S, Y111H
VL: not shown
notes: His variant of 300N
Regarding B8, in experiment [1], the dissociation constant (Kd) is 7.01 nM and the t½ was 6 min. Moreover, in experiment [2], the “KD ratio pH 5.75/pH 7.2” value was determined as 0.36 and the “t½ ratio pH 5.75/pH 7.2” value was found to be 2.29. In experiment [3], this molecule registered an equilibrium dissociation constant (Kd) of 19.4 nM and a t½ of 3 min.

B9: VH-S31H (antibody, V domains shown)
VH: B1 VH with H30S, S31H
VL: not shown
notes: His variant of 300N
Consider B9, for which, in experiment [1], the Kd amounted to 1 nM and the t½ amounted to 16 min. Also, in experiment [2], the “KD ratio pH 5.75/pH 7.2” value worked out at 1 and the “t½ ratio pH 5.75/pH 7.2” value turned out to be 0.34. In addition, in experiment [3], binding was put at a Kd of 1.01 nM and the t½ was found to be 48 min.

B10: VK-G56H (antibody, V domains shown)
VH: B1 VH with H30S
VL: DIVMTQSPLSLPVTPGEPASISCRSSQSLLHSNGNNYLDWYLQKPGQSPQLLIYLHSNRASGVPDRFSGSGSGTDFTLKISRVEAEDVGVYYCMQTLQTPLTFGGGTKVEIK
notes: His variant of 300N
Turning to B10, in experiment [1], the affinity, expressed as Kd, was 1.83 nM and the t½ was 9 min. In addition, in experiment [2], the “KD ratio pH 5.75/pH 7.2” value is 1.65 and the “t½ ratio pH 5.75/pH 7.2” value was 0.24. In experiment [3], this molecule gave a dissociation constant Kd of 1.11 nM and a t½ of 36 min.

B11: VK-Q95H (antibody, V domains shown)
VH: B1 VH with H30S
VL: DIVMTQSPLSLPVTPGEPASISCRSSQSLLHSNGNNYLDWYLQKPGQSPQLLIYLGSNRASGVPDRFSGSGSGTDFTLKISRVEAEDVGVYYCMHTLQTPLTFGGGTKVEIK
notes: His variant of 300N
Take B11: in experiment [1], the equilibrium dissociation constant (Kd) was found to be 1.97 nM and the t½ was 6 min. Also, in experiment [2], the “KD ratio pH 5.75/pH 7.2” value is 1.48 and the “t½ ratio pH 5.75/pH 7.2” value came to 0.23. In experiment [3], this molecule showed a Kd of 1.33 nM and a t½ of 27 min.

B12: VK-Q98H (antibody, V domains shown)
VH: B1 VH with H30S
VL: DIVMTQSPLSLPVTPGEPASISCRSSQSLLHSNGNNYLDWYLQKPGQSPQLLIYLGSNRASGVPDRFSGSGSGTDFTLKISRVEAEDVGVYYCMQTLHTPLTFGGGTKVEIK
notes: His variant of 300N
In the case of B12, in experiment [1], binding was characterised by a dissociation constant (Kd) of 0.805 nM and the t½ was determined as 20 min. For the same molecule, in experiment [2], the “KD ratio pH 5.75/pH 7.2” value was 0.88 and the “t½ ratio pH 5.75/pH 7.2” value was found to be 0.41. In addition, in experiment [3], binding was characterised by a dissociation constant (Kd) of 0.914 nM and the t½ was determined as 49 min.

B13: VH-Y105H (antibody, V domains shown)
VH: B1 VH with H30S, Y105H
VL: not shown
notes: His variant of 300N
Take B13: in experiment [1], the affinity, expressed as Kd, was 643 nM and the t½ was 0 min. Also, in experiment [2], the “KD ratio pH 5.75/pH 7.2” value was 2.2 and the “t½ ratio pH 5.75/pH 7.2” value was found to be 0.83. In experiment [3], this molecule registered a Kd of 292 nM and a t½ of 1 min.

B14: VH-V116H (antibody, V domains shown)
VH: B1 VH with H30S, V116H
VL: not shown
notes: His variant of 300N
For B14, in experiment [1], the dissociation constant (Kd) stood at 6.11 nM and the t½ was found to be 11 min. For the same molecule, in experiment [2], the “KD ratio pH 5.75/pH 7.2” value worked out at 2.33 and the “t½ ratio pH 5.75/pH 7.2” value was found to be 0.26. In experiment [3], this molecule returned a dissociation constant (Kd) of 2.62 nM and a t½ of 43 min.

B15: VH-Y109H (antibody, V domains shown)
VH: B1 VH with H30S, Y109H
VL: not shown
notes: His variant of 300N
In experiment [1], B15 returned a Kd of 247 nM and a t½ of 1 min. In experiment [2], the “KD ratio pH 5.75/pH 7.2” value worked out at 1.02 and the “t½ ratio pH 5.75/pH 7.2” value was found to be 1.37. In experiment [3], this molecule came in with a Kd of 242 nM and a t½ of 0 min.

B16: VK-M94H (antibody, V domains shown)
VH: B1 VH with H30S
VL: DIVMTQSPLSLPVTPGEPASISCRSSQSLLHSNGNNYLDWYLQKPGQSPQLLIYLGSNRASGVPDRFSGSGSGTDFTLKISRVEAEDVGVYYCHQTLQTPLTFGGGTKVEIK
notes: His variant of 300N
For the molecule B16, in experiment [1], the equilibrium dissociation constant (Kd) was determined as 11.3 nM and the t½ stood at 7 min. In experiment [2], the “KD ratio pH 5.75/pH 7.2” value was determined as 3.21 and the “t½ ratio pH 5.75/pH 7.2” value is 0.23. Moreover, in experiment [3], the Kd came out at 3.53 nM and the t½ turned out to be 29 min.

B17: VH-T28H (antibody, V domains shown)
VH: B1 VH with T28H, H30S
VL: not shown
notes: His variant of 300N
In experiment [1], B17 displayed a Kd of 1.45 nM and a t½ of 16 min. In addition, in experiment [2], the “KD ratio pH 5.75/pH 7.2” value came out at 0.49 and the “t½ ratio pH 5.75/pH 7.2” value is 0.8. In experiment [3], this molecule registered a Kd of 2.96 nM and a t½ of 20 min.

B18: VK-P100H (antibody, V domains shown)
VH: B1 VH with H30S
VL: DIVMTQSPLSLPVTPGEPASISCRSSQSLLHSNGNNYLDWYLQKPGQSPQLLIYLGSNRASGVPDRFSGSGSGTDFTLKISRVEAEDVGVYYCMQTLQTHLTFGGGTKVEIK
notes: His variant of 300N
Consider B18, for which, in experiment [1], binding was put at a Kd of 12.8 nM and the t½ turned out to be 0.4 min. In experiment [2], the “KD ratio pH 5.75/pH 7.2” value was determined as 1.44 and the “t½ ratio pH 5.75/pH 7.2” value worked out at 0.1. Besides, in experiment [3], the Kd came to 8.9 nM and the t½ came out at 4 min.

B19: VK-L101H (antibody, V domains shown)
VH: B1 VH with H30S
VL: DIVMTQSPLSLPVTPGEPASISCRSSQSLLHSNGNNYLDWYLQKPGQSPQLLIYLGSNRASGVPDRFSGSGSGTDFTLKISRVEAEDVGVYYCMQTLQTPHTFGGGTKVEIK
notes: His variant of 300N
In experiment [1], B19 displayed a Kd of 3.3 nM and a t½ of 8 min. In experiment [2], the “KD ratio pH 5.75/pH 7.2” value was found to be 1.84 and the “t½ ratio pH 5.75/pH 7.2” value was 0.25. Also, in experiment [3], the dissociation constant (Kd) was determined as 1.8 nM and the t½ amounted to 33 min.

B20: VK-L55H (antibody, V domains shown)
VH: B1 VH with H30S
VL: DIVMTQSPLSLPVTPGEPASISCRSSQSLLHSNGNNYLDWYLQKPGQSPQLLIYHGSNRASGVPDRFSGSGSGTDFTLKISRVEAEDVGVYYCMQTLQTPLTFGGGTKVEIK
notes: His variant of 300N
In experiment [1], B20 came in with a Kd of 2.68 nM and a t½ of 19 min. In experiment [2], the “KD ratio pH 5.75/pH 7.2” value worked out at 2.95 and the “t½ ratio pH 5.75/pH 7.2” value stood at 0.29. In addition, in experiment [3], the dissociation constant Kd came out at 0.906 nM and the t½ turned out to be 66 min.

B21: VK-N33H (antibody, V domains shown)
VH: B1 VH with H30S
VL: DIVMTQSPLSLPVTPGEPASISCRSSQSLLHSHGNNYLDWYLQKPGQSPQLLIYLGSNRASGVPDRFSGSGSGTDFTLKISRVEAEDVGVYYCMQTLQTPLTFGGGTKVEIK
notes: His variant of 300N
As to B21, in experiment [1], the equilibrium dissociation constant (Kd) was found to be 369 nM and the t½ amounted to 0.3 min. Besides, in experiment [2], the “KD ratio pH 5.75/pH 7.2” value was determined as 38.1 and the “t½ ratio pH 5.75/pH 7.2” value stood at 0.12. For the same molecule, in experiment [3], the equilibrium dissociation constant (Kd) is 9.69 nM and the t½ was 2 min.

B22: VK-L29H (antibody, V domains shown)
VH: B1 VH with H30S
VL: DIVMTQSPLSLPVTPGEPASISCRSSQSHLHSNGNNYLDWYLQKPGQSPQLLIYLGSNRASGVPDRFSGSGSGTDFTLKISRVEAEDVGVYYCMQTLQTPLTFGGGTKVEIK
notes: His variant of 300N
Regarding B22, in experiment [1], the dissociation constant (Kd) stood at 40.2 nM and the t½ was determined as 1 min. In experiment [2], the “KD ratio pH 5.75/pH 7.2” value is 3.12 and the “t½ ratio pH 5.75/pH 7.2” value was 0.16. In experiment [3], this molecule returned a Kd of 12.9 nM and a t½ of 7 min.

B23: VK-G34H (antibody, V domains shown)
VH: B1 VH with H30S
VL: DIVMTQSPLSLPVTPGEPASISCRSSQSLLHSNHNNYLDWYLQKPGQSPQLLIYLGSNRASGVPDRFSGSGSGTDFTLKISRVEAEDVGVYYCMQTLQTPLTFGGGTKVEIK
notes: His variant of 300N
Regarding B23, in experiment [1], the dissociation constant (Kd) was determined as 2370 nM and the t½ was determined as 0.3 min. For the same molecule, in experiment [2], the “KD ratio pH 5.75/pH 7.2” value was determined as 131 and the “t½ ratio pH 5.75/pH 7.2” value came out at 0.38. Further, in experiment [3], the dissociation constant (Kd) came out at 18 nM and the t½ was 1 min.

B24: VH-Y110H (antibody, V domains shown)
VH: B1 VH with H30S, Y110H
VL: not shown
notes: His variant of 300N
In experiment [1], B24 returned a Kd of 3.37 nM and a t½ of 7 min. In addition, in experiment [2], the “KD ratio pH 5.75/pH 7.2” value is 0.02 and the “t½ ratio pH 5.75/pH 7.2” value stood at 9.97. In experiment [3], this molecule yielded a dissociation constant Kd of 194 nM and a t½ of 1 min.

B25: VK-Q27H (antibody, V domains shown)
VH: B1 VH with H30S
VL: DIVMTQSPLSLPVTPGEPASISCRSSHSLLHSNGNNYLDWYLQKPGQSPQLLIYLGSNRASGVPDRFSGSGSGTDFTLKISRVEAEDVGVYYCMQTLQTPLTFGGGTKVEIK
notes: His variant of 300N
Regarding B25, in experiment [1], the Kd was 2.85 nM and the t½ was 4 min. Also, in experiment [2], the “KD ratio pH 5.75/pH 7.2” value turned out to be 0.57 and the “t½ ratio pH 5.75/pH 7.2” value was found to be 0.42. In experiment [3], the Kd came out at 5.01 nM and the t½ worked out at 9 min.

B26: VK-S28H (antibody, V domains shown)
VH: B1 VH with H30S
VL: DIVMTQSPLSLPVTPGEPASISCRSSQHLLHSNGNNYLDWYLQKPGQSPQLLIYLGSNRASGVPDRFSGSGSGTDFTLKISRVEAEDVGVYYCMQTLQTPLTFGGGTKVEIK
notes: His variant of 300N
In experiment [1], B26 registered a dissociation constant (Kd) of 7.63 nM and a t½ of 6 min. In experiment [2], the “KD ratio pH 5.75/pH 7.2” value was 0.06 and the “t½ ratio pH 5.75/pH 7.2” value was 22.2. In experiment [3], binding was put at a Kd of 138 nM and the t½ was found to be 0 min.
